Measured values from patent US20210371503A1 (UNIVERSITY OF COLOGNE, published 2021).

B1: MnC5t2p1_G1 (antibody, V domains shown)
VH: QMQLVQSGPEVKKPGTSVKVSCKASGFTFTSSAVQWVRQARGQRLEWIGWIVVGSGNTDYAQKFQERVTITRDVSTSTAYMELSSLRSEDTAVYYCAAPRCSGGSCYDGFDIWGQGTMVTVSS
VL: EIVLTQSPGTLSLSPGERATLSCRASQSVSSSYLAWYQHKPGQAPRLLICGASSRATGIPDRFSGSGSGTGFTLTISRLEPEDFAVYYCQQYGSSPWTFGQGTKVEIK
B2: DZIF-10c (antibody, V domains shown)
VH: QVQLVESGGGVVQPGRSLRLSCAATGFTFRRYGMHWVRQAPGKGLEWVAGILFDGSNKYYVDSVKGRFTISRDSSRNTLYLQLNSLRREDTAVYYCAKGGDYEWELLESWGQGTLVTVSS
VL: DIQMTQSPSTVSASVGDRVTITCRASQSIDNWLAWYQEKPGKAPKVLIYKASSLESGVPSRFSGRGSGTEFTLTISSLQPGDFATYYCQHYHSFPLTFGGGTKVDIKR
notes: also called HbnC3t1p1_F4(-K); EX14870
B3: MnC4t2p2_A4 (antibody, V domains shown)
VH: QVQLVQSGSELKKPGASVKISCKASGYIFINYAMNWVRQAPGQGLEWMGWINTNTGNPTYAQDFTGRFVFSLDTSLSTAYLQISSLEAEDTAVYYCAKIGSRNSLGVWGQGTLVTVSA
VL: EIVLTQSPGTLSLSPGERATLSCRASHSVDRSYLAWYQQKPGLAPRLLIYGASSRATGIPDRFSGSGSGTDFTLTISRLEPEDFALYYCQHFGTSSVTFGRGTRLEIK
B4: MnC4t2p1_E6 (antibody, V domains shown)
VH: EVQLVESGGHLVQPGRSLRLSCAASGFTFDDYAMHWVRQVPGKGLEWVSGISWNGGILGYADSVKGRFTISRDNAKNSLYLQMRSLRTDDTALYYCAKDLRRQDYYADWYFDLWGRGTLVTVSS
VL: DIQMTQSPSSVSASVGDRVTITCRASQGISSWLAWYQQKPGKAPKLLIYAASTLLSAVPSRFSGSGSGTDFTLTISSLQPEDFATYYCQQGNSFPFTFGPGTKVDV

How the values were obtained:
[1] = target: T1, prefusion stabilized SARS-CoV-2 S ectodomain (SARS-CoV-2, UniProt P0DTC2 14-1208); test: ELISA, coated S ectodomain [cont'd]
T1 construct: also called SARS-CoV-2 spike ectodomain; ectodomain of the spike (S) homotrimer of SARS-CoV-2

[2] = target: T1, prefusion stabilized SARS-CoV-2 S …; test: assay not stated; row Binding Affinity Spike Trimer, construct not given

| Binder | EC50 [1] [mg/L] | Kd [2] [nM] |
| --- | --- | --- |
| B1 | 0.03 | – |
| B2 | – | 0.65 |
| B3 | 0.02 | – |
| B4 | 0.03 | – |
